# Results published in the supplement of paper PMC10126150.
# ± gives the standard deviation of the averaged measurements.
# System: ATP
# Assay: switch fluorescence ratio, 500 uM ATP over buffer (Cy3 cluster intensity, sum of 5 cycles each) (fold (ratio)); higher = stronger signal-on switching upon ATP binding; sequences stand for … in TCGTCGGCAGCGTCAGATGTGTATAAGAGACAGTTTTTTTTTTTTTTTTTTTTTTTTT…TC
# Conditions: aptamer strand: ATP DNA aptamer (quencher-CACCTGGGGGAGTATTGCGGAGGAAGG + anchor), 100 nM annealed; ATP concentration: 500 uM
# In short: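 Between each of five buffer/ATP cycles, the flow-cell was stripped with NaOH and re-annealed. Each cycle imaged Cy3-labelled switching-strand clusters, annealed to 100 nM quencher-labelled ATP aptamer on a modified Illumina MiSeq flow-cell, first in selection buffer and then after 15 min with 500 uM ATP at 22 °C. The fluorescence ratio is summed target-cycle over summed buffer-cycle Cy3 intensity per cluster, averaged per switch-domain sequence, with clusters outside 100-1000 RFU excluded.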
# 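Note: ATP exposure 15 min at 22 °C before imaging.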
row,Sequence,switch fluorescence ratio
1,TATGTCTCTT,1.02 ± 0.021
2,TATGTCTTTA,1 ± 0.017
3,TATGTGAGCA,0.99 ± 0.014
4,TATGTGGCT,1.017 ± 0.0043
5,TATGTGGGAA,1.01 ± 0.062
6,TATGTGGTTG,0.99 ± 0.016
7,TATGTGTCAG,0.977 ± 0.012
8,TATGTGTGAT,0.996 ± 0.013
9,TATGTGTGGG,1.01 ± 0.026
10,TATGTGTTGG,0.992 ± 0.025
11,TATGTTAGAT,1.002 ± 0.01
12,TATGTTAGTC,0.988 ± 0.054
13,TATGTTGCAA,1.01 ± 0.025
14,TATGTTGGAT,0.988 ± 0.012
15,TATGTTTATT,1.03 ± 0.011
16,TATGTTTCCT,1.02 ± 0.037
17,TATGTTTCGT,1.01 ± 0.041
18,TATGTTTGAA,0.984 ± 0.015
19,TATTAACCTT,1.6415 ± 0.00013
20,TATTAAGCAG,1.07 ± 0.038
21,TATTAAGTAT,1.01 ± 0.019
22,TATTAATGTG,0.974 ± 0.042
23,TATTACACAT,1.01 ± 0.04
24,TATTAGAGGT,0.997 ± 0.019
25,TATTAGATTC,0.9656 ± 0.0023

row,Sequence,switch fluorescence ratio
1,TATTAGGCAT,1.15 ± 0.23
2,TATTAGGCGC,0.982 ± 0.022
3,TATTAGGGGA,1.02 ± 0.013
4,TATTAGTCAG,1 ± 0.023
5,TATTATCTGC,0.971 ± 0.021
6,TATTATGACC,1.01 ± 0.043
7,TATTATGATC,1.03 ± 0.02
8,TATTATGGCA,1.02 ± 0.08
9,TATTATTGGT,0.992 ± 0.045
10,TATTATTTGT,0.994 ± 0.053
11,TATTATTTTG,1 ± 0.049
12,TATTCAACGG,1.02 ± 0.028
13,TATTCAAGTT,1 ± 0.024
14,TATTCAGGGG,1.03 ± 0.058
15,TATTCAGTGC,1.01 ± 0.046
16,TATTCATGTT,0.991 ± 0.029
17,TATTCCGCC,2.29 ± 0.033
18,TATTCGGGAG,1.0052 ± 0.00035
19,TATTCTCATT,0.977 ± 0.023
20,TATTGACGGG,0.9956 ± 0.0023
21,TATTGAGCGT,1 ± 0.044
22,TATTGAGGGG,1 ± 0.038
23,TATTGATAGC,1.014 ± 0.0083
24,TATTGCGGCA,1.011 ± 0.0051
25,TATTGCTTCT,0.9913 ± 0.0021

row,Sequence,switch fluorescence ratio
1,TATTGGGCCT,1 ± 0.051
2,TATTGGGGGA,0.995 ± 0.043
3,TATTGGGTCG,0.99 ± 0.023
4,TATTGGTTGT,0.999 ± 0.029
5,TATTGTCTTT,1.02 ± 0.025
6,TATTGTGACT,1.021 ± 0.01
7,TATTGTGGCT,0.9785 ± 0.0061
8,TATTGTGTAA,1 ± 0.023
9,TATTGTTCTG,0.9819 ± 0.0025
10,TATTGTTGTT,0.9949 ± 0.0063
11,TATTTAAAAG,1.003 ± 0.009
12,TATTTAAGGG,1.12 ± 0.16
13,TATTTAATCA,1.008 ± 0.0097
14,TATTTACAGG,1.033 ± 0.0084
15,TATTTAGGAC,0.99 ± 0.028
16,TATTTATATT,1.06 ± 0.029
17,TATTTATCGG,0.991 ± 0.013
18,TATTTATGTA,1.01 ± 0.045
19,TATTTCCTGT,0.993 ± 0.011
20,TATTTCGTGG,0.985 ± 0.024
21,TATTTGAAA,1.05 ± 0.059
22,TATTTGCGCA,1.06 ± 0.099
23,TATTTGCTTT,1.02 ± 0.015
24,TATTTGGGGA,0.999 ± 0.024
25,TATTTGGTCG,1.02 ± 0.047

row,Sequence,switch fluorescence ratio
1,TATTTGTATG,0.9919 ± 0.003
2,TATTTGTGCT,0.982 ± 0.011
3,TATTTTACCA,1.017 ± 0.0061
4,TATTTTCCTG,1.15 ± 0.18
5,TATTTTCGGT,0.986 ± 0.021
6,TATTTTCTCA,1.05 ± 0.049
7,TATTTTCTTT,0.982 ± 0.021
8,TATTTTGGGC,0.997 ± 0.046
9,TATTTTGGTG,0.984 ± 0.033
10,TATTTTTATA,0.992 ± 0.017
11,TATTTTTATC,1.03 ± 0.018
12,TATTTTTGCC,1.001 ± 0.0031
13,TCAAAAAGGA,1.01 ± 0.031
14,TCAAAACGGT,1.34 ± 0.51
15,TCAAAACTGT,1.07 ± 0.067
16,TCAAAAGGGA,1.02 ± 0.041
17,TCAAACTGGT,1.03 ± 0.028
18,TCAAACTTAT,1.05 ± 0.027
19,TCAAAGAAC,1.0338 ± 0.00026
20,TCAAAGGTTC,1.13 ± 0.16
21,TCAAAGTTGG,1.01 ± 0.022
22,TCAACCAAAA,1.02 ± 0.011
23,TCAACGTAGA,1.03 ± 0.014
24,TCAACGTGCT,1 ± 0.037
25,TCAACTGGTG,1.35 ± 0.16

row,Sequence,switch fluorescence ratio
1,TCAACTTTTT,1.01 ± 0.02
2,TCAAGACGCA,1.068 ± 0.0035
3,TCAAGAGGTT,1.001 ± 0.01
4,TCAAGCCATT,0.989 ± 0.022
5,TCAAGGAGTT,0.9773 ± 0.0047
6,TCAAGGCGGA,0.99 ± 0.012
7,TCAATATTGG,1.008 ± 0.0098
8,TCAATCCTTG,0.999 ± 0.035
9,TCAATGCATG,0.983 ± 0.035
10,TCAATGGTTT,1.12 ± 0.21
11,TCAATTGGGA,0.983 ± 0.055
12,TCAATTTGGC,1.02 ± 0.039
13,TCAATTTGGG,0.971 ± 0.022
14,TCACAATGCG,1.06 ± 0.064
15,TCACAGCCG,1.046 ± 0.0085
16,TCACAGTAAT,1.13 ± 0.063
17,TCACAGTTAG,0.998 ± 0.046
18,TCACCAGGTA,2.163 ± 0.021
19,TCACCATATT,1.05 ± 0.02
20,TCACGCTTCA,1.12 ± 0.033
21,TCACGCTTTT,1.11 ± 0.12
22,TCACGTTCAA,1.06 ± 0.022
23,TCACGTTTAG,1.03 ± 0.011
24,TCACTCGAAG,1.01 ± 0.0067
25,TCAGAATCGT,0.988 ± 0.026

row,Sequence,switch fluorescence ratio
1,TCAGAATGCG,0.991 ± 0.045
2,TCAGAATTCA,1.01 ± 0.012
3,TCAGACTGTT,1.01 ± 0.013
4,TCAGAGGCGT,0.9964 ± 0.0056
5,TCAGAGGGCA,1 ± 0.053
6,TCAGATTGTT,0.9623 ± 0.0028
7,TCAGATTTGG,0.9901 ± 0.006
8,TCAGCGGGGG,1.11 ± 0.16
9,TCAGCGGTTT,0.96 ± 0.055
10,TCAGGACGGC,0.99 ± 0.044
11,TCAGGAGTCG,1.02 ± 0.06
12,TCAGGCTAAC,1.01 ± 0.011
13,TCAGGCTAGC,1.07 ± 0.026
14,TCAGGCTAGG,1.02 ± 0.028
15,TCAGGCTGTT,0.968 ± 0.04
16,TCAGGGACGA,1.02 ± 0.055
17,TCAGGGAGGG,1.06 ± 0.15
18,TCAGGGAGTG,0.9758 ± 0.0095
19,TCAGGGCGTG,1 ± 0.026
20,TCAGGGGAAG,0.999 ± 0.015
21,TCAGGGGCTG,0.974 ± 0.043
22,TCAGGGGGCT,1.03 ± 0.088
23,TCAGGGGGGT,1.11 ± 0.3
24,TCAGGGGTCG,1.05 ± 0.056
25,TCAGGGGTGG,1 ± 0.058

row,Sequence,switch fluorescence ratio
1,TCAGGGTGAA,1.02 ± 0.041
2,TCAGGGTTGG,0.978 ± 0.024
3,TCAGGGTTTT,1.01 ± 0.018
4,TCAGGTGGGT,1.22 ± 0.22
5,TCAGTAATTT,1.03 ± 0.032
6,TCAGTACATG,0.992 ± 0.02
7,TCAGTCAGCT,1 ± 0.039
8,TCAGTCCGGA,1.02 ± 0.024
9,TCAGTGACGT,0.9827 ± 0.0096
10,TCAGTGCCAG,0.992 ± 0.022
11,TCAGTTAATT,1.008 ± 0.0099
12,TCAGTTGGTT,0.977 ± 0.064
13,TCAGTTGTAT,0.979 ± 0.011
14,TCAGTTTAGC,1.01 ± 0.016
15,TCAGTTTGGT,0.99 ± 0.017
16,TCATAAAGGG,1.03 ± 0.0064
17,TCATAAGGGA,0.997 ± 0.028
18,TCATAAGTTG,0.9957 ± 0.0042
19,TCATACCATT,1 ± 0.024
20,TCATAGAGTA,1.02 ± 0.018
21,TCATAGGATT,0.995 ± 0.04
22,TCATAGGTTT,0.974 ± 0.038
23,TCATAGTCGG,1 ± 0.024
24,TCATATGGTG,1.03 ± 0.038
25,TCATCGTCT,1.01 ± 0.023

row,Sequence,switch fluorescence ratio
1,TCATCTTTTT,0.9477 ± 0.0022
2,TCATGAACTT,1.07 ± 0.078
3,TCATGATAGT,0.9825 ± 0.0081
4,TCATGCCAAC,1.03 ± 0.011
5,TCATGCCGGG,1.04 ± 0.014
6,TCATGCTGAG,0.98 ± 0.0077
7,TCATGGAGTA,0.981 ± 0.08
8,TCATGGATAG,1.006 ± 0.002
9,TCATGGCGGT,1.01 ± 0.014
10,TCATGGGGGA,1.03 ± 0.046
11,TCATGGGGTT,1.006 ± 0.0065
12,TCATGTATTG,1.01 ± 0.037
13,TCATTAATTT,0.9873 ± 0.0086
14,TCATTCAACT,1 ± 0.013
15,TCATTCAAGT,1.04 ± 0.011
16,TCATTCCATT,0.988 ± 0.031
17,TCATTCGCAG,3.73 ± 0.77
18,TCATTCGTCC,1.099 ± 0.0056
19,TCATTGGGG,0.974 ± 0.029
20,TCATTTAAGG,0.987 ± 0.02
21,TCATTTATTG,1.02 ± 0.024
22,TCATTTTTTT,0.997 ± 0.036
23,TCCAACGTAT,1.493 ± 0.0064
24,TCCAAGGGAT,1.01 ± 0.012
25,TCCAAGGGGT,1.06 ± 0.044
